Three molecules from publication doi:10.1101/2021.02.19.432017 (bioRxiv, 2021) can be followed below.

The labels stand for the following.
B1: Integrin linked kinase (ILK), subunit of the IPP complex (natural protein)
chain: MDDIFTQCREGNAVAVRLWLDNTENDLNQGDDHGFSPLHWACREGRSAVVEMLIMRGARINVMNRGDDTPLHLAASHGHRDIVQKLLQYKADINAVNEHGNVPLHYACFWGQDQVAEDLVANGALVSICNKYGEMPVDKAKAPLRELLRERAEKMGQNLNRIPYKDTFWKGTTRTRPRNGTLNKHSGIDFKQLNFLTKLNENHSGELWKGRWQGNDIVVKVLKVRDWSTRKSRDFNEECPRLRIFSHPNVLPVLGACQSPPAPHPTLITHWMPYGSLYNVLHEGTNFVVDQSQAVKFALDMARGMAFLHTLEPLIPRHALNSRSVMIDEDMTARISMADVKFSFQCPGRMYAPAWVAPEALQKKPEDTNRRSADMWSFAVLLWELVTREVPFADLSNMEIGMKVALEGLRPTIPPGISPHVCKLMKICMNEDPAKRPKFDMIVPILEKMQDK
B2: Ras suppressor-1 (Rsu-1), wild type (natural protein)
chain: MSKSLKKLVEESREKNQPEVDMSDRGISNMLDVNGLFTLSHITQLVLSHNKLTMVPPNIAELKNLEVLNFFNNQIEELPTQISSLQKLKHLNLGMNRLNTLPRGFGSLPALEVLDLTYNNLSENSLPGNFFYLTTLRALYLSDNDFEILPPDIGKLTKLQILSLRDNDLISLPKEIGELTQLKELHIQGNRLTVLPPELGNLDLTGQKQVFKAENNPWVTPIADQFQLGVSHVFEYIRSETYKYLYGRHMQANPEPPKKNNDKSKKISRKPLAAKNR
B3: PINCH-2 LIM5S (size exclusion) (domain or fragment)
chain: GDVCYNCSHVIEGDVVSALNKAWCVSCFSCSTCNSKLTLKNKFVEFDMKPVCKRCYEKFPLELKKRLKKLSELTSRK

Assay in all cases: SEC
For one experiment, the target named is T1, Kindlin-2 (human, UniProt Q96AC1 1-680).
T1 sequence: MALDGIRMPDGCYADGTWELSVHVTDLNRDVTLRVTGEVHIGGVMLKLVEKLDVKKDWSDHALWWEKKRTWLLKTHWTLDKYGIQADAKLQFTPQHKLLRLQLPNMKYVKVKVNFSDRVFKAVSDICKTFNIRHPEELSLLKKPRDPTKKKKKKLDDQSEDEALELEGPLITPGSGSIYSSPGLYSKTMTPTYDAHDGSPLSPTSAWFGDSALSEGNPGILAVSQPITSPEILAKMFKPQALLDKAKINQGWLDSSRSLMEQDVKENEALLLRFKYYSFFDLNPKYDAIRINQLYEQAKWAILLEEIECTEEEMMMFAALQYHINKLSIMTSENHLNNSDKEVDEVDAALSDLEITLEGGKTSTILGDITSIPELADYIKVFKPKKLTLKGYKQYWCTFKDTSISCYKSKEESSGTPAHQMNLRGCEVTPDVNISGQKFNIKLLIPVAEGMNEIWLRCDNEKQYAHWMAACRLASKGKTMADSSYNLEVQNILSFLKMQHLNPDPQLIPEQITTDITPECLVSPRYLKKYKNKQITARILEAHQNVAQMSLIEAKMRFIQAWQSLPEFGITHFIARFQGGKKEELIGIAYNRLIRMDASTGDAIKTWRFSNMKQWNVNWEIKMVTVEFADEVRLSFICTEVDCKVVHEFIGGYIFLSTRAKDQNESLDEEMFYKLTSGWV

For experiment [1], the target named is PINCH-1 (residues 1-325), subunit of the IPP complex (human, UniProt P48059 1-325).
Experiment [2] deals with B2.

Chain of PINCH-1 (residues 1-325), subunit of the IPP complex (P48059 whole entry, the tested form may be a part, one chain of several): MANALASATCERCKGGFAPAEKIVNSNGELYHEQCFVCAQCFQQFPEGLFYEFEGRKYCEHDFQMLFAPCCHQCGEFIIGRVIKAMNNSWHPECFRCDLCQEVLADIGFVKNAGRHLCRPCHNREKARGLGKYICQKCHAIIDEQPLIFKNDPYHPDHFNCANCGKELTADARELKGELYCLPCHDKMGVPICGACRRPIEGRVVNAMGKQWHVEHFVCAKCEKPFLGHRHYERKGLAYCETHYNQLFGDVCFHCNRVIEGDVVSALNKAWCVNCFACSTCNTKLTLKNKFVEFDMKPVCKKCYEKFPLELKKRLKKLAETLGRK

Regarding B1, the binding result with Kindlin-2 was “binds”.

In the case of B2, the binding result in experiment [1] is given as “binds”.

As to B3, the binding result in experiment [2] is “binds”.
